The values that follow come from FireProtDB (doi:10.1002/pro.2449).

As a reminder, the Tm is the temperature at which the thermal transition is half complete.

The chains are these.
B1: Guanyl-specific ribonuclease Sa wild type, P05798 (protein)
chain: DVSGTVCLSALPPEATDTLNLIASDGPFPYSQDGVVFQNRESVLPTQSYGYYHEYTVITPGARTRGTRRIITGEATQEDYYTGDHYATFSLIDQTC
B2: Guanyl-specific ribonuclease T1 wild type, P00651 (protein)
chain: MMYSKLLTLTTLLLPTALALPSLVERACDYTCGSNCYSSSDVSTAQAAGYQLHEDGETVGSNSYPHKYNNYEGFDFSVSSPYYEWPILSSGDVYSGGSPGADRVVFNENNQLAGVITHTGASGNNFVECT
B3: Variable large protein wild type, Q5DVG3 (protein)
chain: MNTKKISSAILLTTFFVFINCKSQVADKDDPTNKFYQSVIQLGNGFLDVFTSFGGLVAEAFGFKSDPKKSDVKTYFTTVAAKLEKTKTDLNSLPKEKSDISSTTGKPDSTGSVGTAVEGAIKEVSELLDKLVKAVKTAEGASSGTAAIGEVVDNAAAAKAADKDSVTGIAKGIKEIVEAAGGSKKLKAAAAKGENNKGAGKLFGKAGDAAHGDSEAASKAAGAVSAVSGEQILSAIVKAAAAGDQEGKKPGEAKNPIAAAIGEGDGDAEFNQDGMKKDDQIAAAIALRGMAKDGKFAVKNDEKGKAEGAIKGAAESAVRKVLGAITGLIGDAVSSGLRKVGDSVKAASKETPPALNK

The conditions of one series: Kitasatospora aureofaciens; pH 7; Thermal; DSC; MOPS; transition: 2; reversible: yes; whole UniProt chain shown.
As for B1, the Tm amounted to 48.4 °C and the “unfolding enthalpy (calorimetric)” value was determined as 92 kcal/mol.

Still in this series, the particulars now being: Aspergillus oryzae (strain ATCC 42149 / RIB 40); pH 7; 25 °C; Urea; MOPS; transition: 2; reversible: yes; whole UniProt chain shown.
Turning to B2, the denaturant m value stood at 1.17 kcal/mol/M, the “denaturant midpoint (higher = more stable)” value came to 5.2 M and the unfolding free energy is 6.1 kcal/mol.

The series is the same for the next values; noted with them: Aspergillus oryzae (strain ATCC 42149 / RIB 40); pH 7; Thermal; DSC; MOPS; transition: 2; reversible: yes; whole UniProt chain shown.
As for B2, the melting temperature (Tm) was 52.5 °C and the “unfolding enthalpy (calorimetric)” value came to 107 kcal/mol.

The series is the same for the next values; noted with them: Borreliella burgdorferi; pH 7; 25 °C; Urea; CD; Sodium Phosphate Buffer; transition: 2; reversible: yes; whole UniProt chain shown.
Take B3: the denaturant m value was 3.86 kcal/mol/M, the “denaturant midpoint (higher = more stable)” value was 1.19 M and the unfolding free energy amounted to 4.6 kcal/mol.
